Test [1] addresses T1, γc-JAK-3 interaction (Homo sapiens, UniProt P52333).
T1 construct: endogenous in cells; host or cells: YT cells (alternatively COS-7 cells expressing γc and JAK-3)
T1 sequence (P52333 1-1124): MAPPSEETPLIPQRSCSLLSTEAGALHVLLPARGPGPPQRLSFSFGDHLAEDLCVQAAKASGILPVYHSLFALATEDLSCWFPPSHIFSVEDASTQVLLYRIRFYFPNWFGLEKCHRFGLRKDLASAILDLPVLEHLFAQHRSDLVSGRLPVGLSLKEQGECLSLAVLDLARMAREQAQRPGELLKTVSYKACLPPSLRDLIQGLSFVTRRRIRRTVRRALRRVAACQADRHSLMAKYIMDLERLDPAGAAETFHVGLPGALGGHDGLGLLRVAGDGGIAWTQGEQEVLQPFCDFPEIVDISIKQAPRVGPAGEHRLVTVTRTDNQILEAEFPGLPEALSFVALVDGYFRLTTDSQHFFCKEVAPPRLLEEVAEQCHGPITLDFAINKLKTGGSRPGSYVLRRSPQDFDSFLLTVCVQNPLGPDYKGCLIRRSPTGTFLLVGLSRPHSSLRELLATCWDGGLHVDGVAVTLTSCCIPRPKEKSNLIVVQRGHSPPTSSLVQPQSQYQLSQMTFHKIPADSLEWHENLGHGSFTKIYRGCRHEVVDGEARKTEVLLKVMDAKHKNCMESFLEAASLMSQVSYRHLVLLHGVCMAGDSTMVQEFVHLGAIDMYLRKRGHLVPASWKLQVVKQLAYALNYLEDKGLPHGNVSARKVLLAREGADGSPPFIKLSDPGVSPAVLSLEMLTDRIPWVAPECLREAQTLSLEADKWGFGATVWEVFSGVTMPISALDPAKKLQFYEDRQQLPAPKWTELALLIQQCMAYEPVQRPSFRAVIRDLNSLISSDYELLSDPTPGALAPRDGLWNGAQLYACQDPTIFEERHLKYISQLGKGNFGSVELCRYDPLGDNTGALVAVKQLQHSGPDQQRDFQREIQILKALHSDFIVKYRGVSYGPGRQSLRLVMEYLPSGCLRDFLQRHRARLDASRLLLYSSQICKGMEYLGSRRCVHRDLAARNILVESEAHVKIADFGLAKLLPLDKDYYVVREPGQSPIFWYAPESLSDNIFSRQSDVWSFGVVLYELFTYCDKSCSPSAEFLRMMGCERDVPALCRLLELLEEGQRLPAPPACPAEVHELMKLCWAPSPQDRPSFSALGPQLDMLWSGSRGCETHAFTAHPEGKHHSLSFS
Briefly: Assay for compounds that inhibit IL-2 receptor complex formation: γc-JAK-3 coprecipitation (Example 15). The conditions noted are these: peptide 140 μM added to cell lysates, anti-γc immunoprecipitation, JAK-3 immunoblot. Type of test: binding. The protocol:
The peptide to be tested as an inhibitor corresponded to the first 19 amino acids of the γc cytoplasmic tail (sequence […]) (SEQ ID NO:7). […] The negative control peptide had the sequence […] (SEQ ID NO:10), and was synthesized so that the Tyr residue at position 5 of the peptide was phosphotyrosine. The test peptide or the negative control peptide were separately added to the cell lysates to final concentrations of 140 μM. The positive control immunoprecipitation was carried out in the absence of added peptide. Lysates were immunoprecipitated for 16 hours at 4° C. using antibodies to γc and protein A sepharose and washed six times before electrophoresis on SDS gels. The gels were immunoblotted with antisera to JAK-3 using ECL as described previously.

Test [2] has as its system JAK-3. The experiment in a line: Cytokine-induced tyrosine phosphorylation of JAK-3 in YT cells (Example 10). It is filed as cell-based, human. The conditions noted are these: 15 minutes stimulation, anti-JAK-3 IP, antiphosphotyrosine blot. The protocol: (§1) YT cells were serum-starved for 3 hours and acid washed twice before stimulation and immunoprecipitation. NK 3.3 cells were grown for 2 days in 10% lymphocult (Biotest) and 15% fetal bovine serum before being washed and incubated in 2% serum. Commercial polyclonal anti-JAK-1 and JAK-2 antisera were obtained from UBI and Tyk2 polyclonal antiserum from Santa Cruz Biotechnology.

Test [3] deals with JAK-3. Briefly: Cytokine-induced phosphorylation and activation of JAK-3 in PHA-activated peripheral blood lymphocytes (Example 11). To be noted: for tyrosine phosphorylation of JAK-3: PBL, 15 minutes, Western blotting; for activation of JAK-3: in vitro kinase assays. It is filed as cell-based, human. The protocol: (§2) The PBL were activated for 72 hours with PHA, then washed twice at pH 6.5, incubated for 3 hours in medium containing 0.5% human serum and resuspended in medium containing 10% fetal calf serum for one hour. Cells were then lysed and immunoprecipitated with polyclonal antibodies to JAK-1 (UBI) or JAK-3. The anti-JAK-3 antibody used in these procedures has been described by Johnston et al., in Nature 370:151 (1994). Phosphotyrosine-containing proteins were detected by immunoblotting with 4G10 (UBI). […] In one procedure, the lysate was precleared with polyclonal antibody to JAK-3.
A general note: A western blot detects proteins with antibodies after separation by electrophoresis.

The test system of test [4] is JAK-1. Briefly: Cytokine-induced phosphorylation and activation of JAK-1 in PHA-activated peripheral blood lymphocytes (Example 11). Type of test: cell-based, human. To be noted: for tyrosine phosphorylation of JAK-1: PBL, 15 minutes, Western blotting; for activation of JAK-1: in vitro kinase assays. As to the method:
as §2

The subject of test [5] is JAK-3. Briefly: Cytokine-induced tyrosine phosphorylation of JAK-3 in NK 3.3 cells (Example 10). It is filed as cell-based, human. To be noted: 5 or 15 minutes stimulation. The protocol:
as §1
Cellular lysates were immunoprecipitated with anti-JAK-3 and blotted with antiphosphotyrosine.

On to “APPCYTLKPET (n-terminal fragment) [negative control peptide, reference compound]”, for which the “inhibition of γc-JAK-3 coprecipitation” value in test [1] is “failed to inhibit”.

As for “ERTMPRIPTLKNLEDLVTE (n-terminal fragment) [competitor peptide]”, the “inhibition of γc-JAK-3 coprecipitation” value in test [1] was “partially inhibited”; in test [1] (listed as 19 amino acid long peptide spanning Leu 271) it was “only partially inhibited”; in test [1] (listed as 19 amino acid polypeptide having the sequence of SEQ ID NO:6), “inhibited”.

Turning to “GM-CSF: granulocyte macrophage colony stimulating factor”, the JAK-3 tyrosine phosphorylation entry in test [2] is reported as “not phosphorylated”.

On to IL-9: cytokine, known γc user, for which, in test [3], the “tyrosine phosphorylation of JAK-3” value is listed as “induced tyrosine phosphorylation” and the “activation of JAK-3” value is listed as “activated”. Also, in test [4], the “tyrosine phosphorylation of JAK-1” value is reported as “induced tyrosine phosphorylation” and the “activation of JAK-1” value is “activated”.

B1: IL-7: cytokine, known γc user (protein, UniProt P13232 26-177, looked up)
Interleukin-7: DCDIEGKDGKQYESVLMVSIDQLLDSMKEIGSNCLNNEFNFFKRHICDANKEGMFLFRAARKLRQFLKMNSTGDFDLHLLKVSEGTTILLNCTGQVKGRKPAALGEAQPTKSLEENKSLKEQKKLNDLCFLKRLLQEIKTCWNKILMGTKEH
Regarding B1, in test [3], the “tyrosine phosphorylation of JAK-3” value is “induced tyrosine phosphorylation” and the “activation of JAK-3” value was “activated”. In test [4], the “tyrosine phosphorylation of JAK-1” value is “induced tyrosine phosphorylation” and the “activation of JAK-1” value is given as “activated”.

B2: IL-4: cytokine that utilizes the common γ chain of the IL-2 receptor (protein, UniProt P05112 25-153, looked up)
Interleukin-4: HKCDITLQEIIKTLNSLTEQKTLCTELTVTDIFAASKNTTEKETFCRAATVLRQFYSHHEKDTRCLGATAQQFHRHKQLIRFLKRLDRNLWGLAGLNSCPVKEANQSTLENFLERLKTIMREKYSKCSS
On to B2, for which, in test [3], the “tyrosine phosphorylation of JAK-3” value was “induced tyrosine phosphorylation” and the “activation of JAK-3” value is listed as “activated”. In addition, the JAK-3 tyrosine phosphorylation result in test [5] is listed as “tyrosine phosphorylated”. Moreover, in test [4], the “tyrosine phosphorylation of JAK-1” value is reported as “induced tyrosine phosphorylation” and the “activation of JAK-1” value is “activated”.

(Values after patent US7902348B2, “Janus family kinases and identification of immune modulators” (The United States of America as represented by the …, priority 1995, dated 2011).)
